Measurements taken from paper PMC10397247.

T1: 4H906-bH
T1 chain: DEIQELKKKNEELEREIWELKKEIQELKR

T2: 4H591-bH
T2 chain: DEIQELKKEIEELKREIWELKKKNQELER

T3: 4H850-bH
T3 chain: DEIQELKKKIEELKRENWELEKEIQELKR

T4: 4H570-bH
T4 chain: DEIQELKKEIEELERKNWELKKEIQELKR

T5: 4H3858-bH
T5 chain: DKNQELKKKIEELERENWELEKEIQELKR

T6: 4H3974-bH
T6 chain: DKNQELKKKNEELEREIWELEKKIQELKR

T7: 4H3926-bH
T7 chain: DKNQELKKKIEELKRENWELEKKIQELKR

T8: 4H3817-bH
T8 chain: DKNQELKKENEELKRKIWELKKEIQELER

T9: 4H626-bH
T9 chain: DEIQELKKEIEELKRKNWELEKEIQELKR

T10: 4H3613-bH
T10 chain: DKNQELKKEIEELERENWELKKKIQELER

T11: 4H3628-bH
T11 chain: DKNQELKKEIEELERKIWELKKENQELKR

T12: 4H3497-bH
T12 chain: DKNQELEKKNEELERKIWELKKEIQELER


Assays:
Experiment in all cases: two-hybrid library CCNG1;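 note: natural log of median RNA to DNA barcode read ratio; higher means stronger binding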
[1] = target: T1, 4H906-bH
[2] = target: T2, 4H591-bH
[3] = target: T3, 4H850-bH
[4] = target: T4, 4H570-bH
[5] = target: T5, 4H3858-bH
[6] = target: T6, 4H3974-bH
[7] = target: T7, 4H3926-bH
[8] = target: T8, 4H3817-bH
[9] = target: T9, 4H626-bH
[10] = target: T10, 4H3613-bH
[11] = target: T11, 4H3628-bH
[12] = target: T12, 4H3497-bH

| Binder | interaction score [1] | interaction score [2] | interaction score [3] | interaction score [4] | interaction score [5] | interaction score [6] | interaction score [7] | interaction score [8] | interaction score [9] | interaction score [10] | interaction score [11] | interaction score [12] |
| --- | --- | --- | --- | --- | --- | --- | --- | --- | --- | --- | --- | --- |
| DKNQELKKEIEELERENWELKKKIQELER [4H3613-bH] | -1.07 | -2.09 | 1.37 | -0.821 | 0.0148 | -1.15 | 1.59 | -0.0066 | -1.94 | 0.898 | -0.609 |  |
| DKNQELKKEIEELERKIWELKKENQELKR [4H3628-bH] | -0.107 | 0.0937 | 0.701 | -1.36 | 0.42 | 1.22 | 0.588 | 0.965 | -0.0728 |  | 0.896 |  |
| DKNQELEKKNEELERKIWELKKEIQELER [4H3497-bH] | -0.345 | -1.46 |  |  |  |  | -0.573 |  | -0.895 | -0.463 | 0.758 | -1.02 |
